Source: PMC2800223

Biological target: GST-HuD (UniProt P26378)
Experiment: filter binding

GST-HuD, sequence (P26378 whole entry): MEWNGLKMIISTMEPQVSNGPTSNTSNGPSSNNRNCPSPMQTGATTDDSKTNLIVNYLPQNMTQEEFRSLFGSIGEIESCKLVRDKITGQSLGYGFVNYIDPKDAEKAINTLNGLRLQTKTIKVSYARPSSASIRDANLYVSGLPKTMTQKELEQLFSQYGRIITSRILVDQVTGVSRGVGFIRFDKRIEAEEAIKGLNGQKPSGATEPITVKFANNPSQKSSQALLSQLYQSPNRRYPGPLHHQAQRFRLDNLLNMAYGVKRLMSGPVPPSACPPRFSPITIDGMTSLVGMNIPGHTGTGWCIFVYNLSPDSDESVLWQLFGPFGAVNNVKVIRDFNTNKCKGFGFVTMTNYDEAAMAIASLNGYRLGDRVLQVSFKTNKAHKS

Row | Sequence | Kd [nM]
1 | CCCUCCCUCUCUC [motif 1 oligoribonucleotide] | 27.3
2 | UUUUGUUUUGUUU [motif 2 oligoribonucleotide] | 6.9
